T1: empty phage T5 capsid, undecorated, produced from the mutant phage T5stAmN5-Δdec (UniProt Q6QGD8 160-458; Q6QGD5 11-403)
T1 chain 1: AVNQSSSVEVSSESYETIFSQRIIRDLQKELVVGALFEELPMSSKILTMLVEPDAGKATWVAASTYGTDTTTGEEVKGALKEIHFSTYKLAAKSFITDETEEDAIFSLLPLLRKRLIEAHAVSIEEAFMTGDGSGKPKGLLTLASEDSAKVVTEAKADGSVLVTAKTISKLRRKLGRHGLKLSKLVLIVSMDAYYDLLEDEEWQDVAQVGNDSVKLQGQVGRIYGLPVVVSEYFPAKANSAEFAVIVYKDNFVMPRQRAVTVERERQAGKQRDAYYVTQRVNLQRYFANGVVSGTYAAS
T1 chain 2: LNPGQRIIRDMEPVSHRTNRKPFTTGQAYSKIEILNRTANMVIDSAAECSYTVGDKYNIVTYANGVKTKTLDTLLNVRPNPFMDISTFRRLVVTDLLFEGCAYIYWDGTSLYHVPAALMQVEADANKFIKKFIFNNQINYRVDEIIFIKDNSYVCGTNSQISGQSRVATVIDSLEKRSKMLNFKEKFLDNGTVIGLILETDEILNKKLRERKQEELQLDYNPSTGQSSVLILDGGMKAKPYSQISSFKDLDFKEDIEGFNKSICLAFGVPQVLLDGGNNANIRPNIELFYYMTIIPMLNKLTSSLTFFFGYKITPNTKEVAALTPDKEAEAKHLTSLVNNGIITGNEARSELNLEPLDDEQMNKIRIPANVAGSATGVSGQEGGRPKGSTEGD

T2: recombinant phage T5 capsid produced from plasmid pETcapT5Δdec (assembled in the absence of pb10) (bacteriophage T5, UniProt Q6QGD8 160-458; Q6QGD5 11-403)
T2 construct: also called capsids produced from the plasmid pETcapT5Δdec; pETcapT5Δpb10 capsids
T2 sequence 1: T1 chain 1
T2 sequence 2: T1 chain 2

T3: empty phage T5 capsid, undecorated, produced from the mutant phage T5stAmN5-Δdec (bacteriophage T5, UniProt Q6QGD8 160-458; Q6QGD5 11-403)
T3 construct: devoid of DNA and of pb10, expanded form; also called empty capsids; pure empty capsids
T3 sequence 1: T1 chain 1
T3 sequence 2: T1 chain 2

B1: pb10N-Ter-OVAH6 (N-terminal domain of pb10 fused with ovalbumin, His-tagged) (other)
chain: MGIDYSGLRTIFGEKLPESHIFFATVAAHKYVPSYAFLRRELGLSSAHTNRKVWKKFVEAYGKAIPPAPPAPPMGSIGAASMEFCFDVFKELKVHHANENIFYCPIAIMSALAMVYLGAKDSTRTQINKVVRFDKLPGFGDSIEAQCGTSVNVHSSLRDILNQITKPNDVYSFSLASRLYAEERYPILPEYLQCVKELYRGGLEPINFQTAADQARELINSWVESQTNGIIRNVLQPSSVDSQTAMVLVNAIVFKGLWEKAFKDEDTQAMPFRVTEQESKPVQMMYQIGLFRVASMASEKMKILELPFASGTMSMLVLLPDEVSGLEQLESIINFEKLTEWTSSNVMEERKIKVYLPRMKMEEKYNLTSVLMAMGITDVFSSSANLSGISSAESLKISQAVHAAHAEINEAGREVVGSAEAGVDAASVSEEFRADHPFLFCIKHIATNAVLFFGRCVSP
B2: pb10-OVAH6 (whole protein pb10 fused with ovalbumin, His-tagged) (other)
chain: MGIDYSGLRTIFGEKLPESHIFFATVAAHKYVPSYAFLRRELGLSSAHTNRKVWKKFVEAYGKAIPPAPPAPPLTLSKDLTASMSVEEGAALTLSVTATGGTGPYTYAWTKDGSPIPDASGATYTKPTAAAEDAGSYKVTVTDSKQVSKDSTTCAVTVNPTVPGGMGSIGAASMEFCFDVFKELKVHHANENIFYCPIAIMSALAMVYLGAKDSTRTQINKVVRFDKLPGFGDSIEAQCGTSVNVHSSLRDILNQITKPNDVYSFSLASRLYAEERYPILPEYLQCVKELYRGGLEPINFQTAADQARELINSWVESQTNGIIRNVLQPSSVDSQTAMVLVNAIVFKGLWEKAFKDEDTQAMPFRVTEQESKPVQMMYQIGLFRVASMASEKMKILELPFASGTMSMLVLLPDEVSGLEQLESIINFEKLTEWTSSNVMEERKIKVYLPRMKMEEKYNLTSVLMAMGITDVFSSSANLSGISSAESLKISQAVHAAHAEINEAGREVVGSAEAGVDAASVSEEFRADHPFLFCIKHIATNAVLFFGRCVSP
B3: decoration protein pb10 of phage T5 (other)
chain: MGIDYSGLRTIFGEKLPESHIFFATVAAHKYVPSYAFLRRELGLSSAHTNRKVWKKFVEAYGKAIPPAPPAPPLTLSKDLTASMSVEEGAALTLSVTATGGTGPYTYAWTKDGSPIPDASGATYTKPTAAAEDAGSYKVTVTDSKQVSKDSTTCAVTVNPTVPGGLE
notes: Monomeric; also called native protein pb10; pb10 H6

Legend:
[1] = biological target: T1, empty phage T5 capsid, undecorated, …; test: SPR; 25 °C
[2] = biological target: T2, recombinant phage T5 capsid produced …; test: native agarose gel retardation
[3] = biological target: T1, empty phage T5 capsid, undecorated, …; test: SPR
[4] = biological target: T3, empty phage T5 capsid, undecorated, …; test: native agarose gel retardation, [protein]/[binding sites on the capsid] = 1+/-0.1

Row | Binder | Kd [1] | binding result [2] | Kd [3] | binding result [4]
1 | B1 | 1.22 pM | – | – | –
2 | B2 | 2.34 pM | – | – | –
3 | B3 | 2.25 pM | binds | 1.11 pM | binds
